# In patent US5516685A, “Isolation and characterization of a novel protease from Streptomyces lividans” (Amgen Inc., priority 1994, dated 1996):
# Like-named read-outs stand apart in the source and are kept apart here.
# B1: Protease X: novel protease [SEQ ID NO: 2] secreted into the culture medium by S. lividans (protein)
# chain: MRITLPLLSTAVGLGLTAAVLGTGPAATAAAPQEPVRAAQLGYQPSAGSGEDAAANRAFFEAVVKSVAEKRAANPSAAAAVTVYYSATNAPSFRSQISRSAQIWNSSVSNVRLAESSSGADFAYYEGNDSRGSYASTDGHGSGYIFLDYRQNQQYDSTRVTAHETGHVLGLPDHYSGPCSELMSGGGPGPSCTNPYPNSTERSRVNQLWAYGFQAALDKALEKASQR
# Columns and labels:
# Protease X = format: biochemical, Streptomyces lividans; conditions: for effect of additive on the protease's activity: additive at 20 mM
# Procedure: (§1) The characteristics of the protease reaction catalyzed by this enzyme were determined using the synthetic substrate assay where various synthetic substrates are dissolved at a concentration of 100 mg/ml in dimethylsulfoxide (DMSO). 200 μl aliquots from bacterial culture supernatants were mixed with 780 μl of 5 mM Tris, 25 mM NaCl, pH 7, and incubated at the desired temperature Digestions were then initiated by the addition of 20 μl of substrate and the rate of absorbance at 405 nm was followed for several minutes.
# ^a The assays were performed for 2 min. at 65° C. at pH 7.5.
# [1] = synthetic substrate assay of protease-containing S. lividans (pHL45) broth; format: biochemical; conditions: for Activity (dA/min): control broth activity subtracted
# Procedure: as §1
# Here, the broth from recombinant S. lividans containing pHL45, as well as the broth from an identical S. lividans culture containing a control plasmid only (pIJ699), were compared for proteolytic activity by directly assaying activity in the presence of several different substrates. This experiment was conducted at 37° C. pH 7.0 and 65° C. pH 7 5, in the presence of 10 mM calcium. The substrates tested were: succinyl-ala-ala-pro-phe-pNitroanilide, succinyl-tyr-leu-val-pNitroanilide, ala-pNitroanilide, and leu-pNitroanilide. […] The temperature optimum for the proteolytic reaction was determined using succinyl-ala-ala-pro-phe-pNitroanilide in 10 mM Tris, 25 mM NaCl, pH 7.0.
# azocasein = azocasein assay; format: biochemical; conditions: longer incubation times
# Procedure: After washing the column with buffer, the dialysed protein sample was loaded onto the column. The protein was eluted using a linear gradient of 0.0 to 0.5M NaCl. The eluate's A280 was monitored and 8 ml fractions were collected. […] Following the incubation, the assay reaction was terminated by the addition of 200 μl of 10% trichloroacetic acid and incubation at room temperature for several minutes. The solutions were then neutralized by adding 200 μl 0.2N NaOH to each sample. Samples were centrifuged 2 min. The supernatants were removed and the activity of the fractions was determined from the increase in absorbance at 420 nm.
# proteins = test: peptide mapping of the protease; format: biochemical; conditions: fragments generated during peptide mapping of the protease
# [2] = 20 mM additive, 2 min. at 65° C. at pH 7.5, 0.170 without additive
molecule,measurement,setting,value
[Ca+2].[Cl-].[Cl-] [CaCl2],Protease activity (dA/min) in presence of additive,"Protease X; 5 mM additive, 2 min. at 65° C. at pH 7.5, 0.170 without additive",0.235 dA/min
same,Protease activity (dA/min) in presence of additive,Protease X; [2],0.251 dA/min
same,effect of additive on the protease's activity,"Protease X; 65° C., pH 7.5",enhanced
"O=C(O)CN(CCN(CC(=O)O)CC(=O)O)CC(=O)O [EDTA, reference compound]",Protease activity (dA/min) in presence of additive,Protease X; pH 7.5,0.120 dA/min
[Cl-].[Cl-].[Mg+2] [MgCl2],Protease activity (dA/min) in presence of additive,Protease X; [2],0.250 dA/min
same,effect of additive on the protease's activity,"Protease X; 65° C., pH 7.5",appears to enhance
"O=S(=O)(F)Cc1ccccc1 [PMSF, reference compound]",Protease activity (dA/min) in presence of additive,"Protease X; 1 mM additive, 2 min. at 65° C. at pH 7.5, 0.170 without additive",0.000 dA/min
same,effect of additive on the protease reaction,"Protease X; addition of PMSF, 65° C., pH 7.5",totally inhibited
B1,temperature optimum for cleavage of succinyl-ala-ala-pro-phe-pNitroanilide,"[1]; 10 mM Tris, 25 mM NaCl, pH 7.0",65 °C
same,time for which catalytic rate remains linear,[1]; 65° C.,at least 2 min
same,pH optimum,[1]; 65° C. reaction,7.5 pH
same,thermal stability of the activity,"[1]; 70° C., initial catalytic rate very fast, enzyme apparently becomes denatured",activity drops off dramatically
same,Activity (dA/min),"[1]; Temperature 30.000, 10 mM Tris, 25 mM NaCl, pH 7.0",0.008 dA/min
same,Activity (dA/min),"[1]; Temperature 40.000, 10 mM Tris, 25 mM NaCl, pH 7.0",0.017 dA/min
same,Activity (dA/min),"[1]; Temperature 50.000, 10 mM Tris, 25 mM NaCl, pH 7.0",0.042 dA/min
same,Activity (dA/min),"[1]; Temperature 60.000, 10 mM Tris, 25 mM NaCl, pH 7.0",0.074 dA/min
same,Activity (dA/min),"[1]; Temperature 65.000, 10 mM Tris, 25 mM NaCl, pH 7.0",0.085 dA/min
same,Activity (dA/min),"[1]; Temperature 70.000, 10 mM Tris, 25 mM NaCl, pH 7.0",0.047 dA/min
same,Activity (dA/min),"[1]; no additive, 2 min. at 65° C. at pH 7.5",0.170 dA/min
same,proteolytic activity on substrate compared with control broth (pIJ699),"[1]; only substrate of four tested, 37° C. pH 7.0 and 65° C. pH 7 5, 10 mM calcium",showed activity above that of the control
same,Activity (dA/min),"[1]; pH 6.000, 65° C. reaction",0.048 dA/min
same,Activity (dA/min),"[1]; pH 7.000, 65° C. reaction",0.085 dA/min
same,Activity (dA/min),"[1]; pH 7.500, 65° C. reaction",0.190 dA/min
same,Activity (dA/min),"[1]; pH 8.000, 65° C. reaction",0.105 dA/min
same,temperature optimum in the azocasein assay,azocasein,60 °C
same,cleavage site preference,proteins,preferentially processes proteins amino-terminally of tyrosine
